The target in the test is L1 ORF1p-T7 (T7-tagged ORF1 protein expressed from the L1 construct pAD2TE1) (human) (UniProt Q9UN81). Put plainly: co-IP; 293T cells cotransfected with pAD2TE1 and the partner; lysis 48 h posttransfection in 160 mM NaCl, 50 mM Tris-HCl pH 7.5, 1 mM EDTA, […] NP-40 with RNaseOUT; ORF1p-T7 precipitated with anti-T7 monoclonal antibody on magnetic beads; immunoblot; signals normalized on T7 signal in IP and myc signal in WCL. A general note: A western blot detects proteins with antibodies after separation by electrophoresis.
UniProt Q9UN81, sequence (Q9UN81 whole entry): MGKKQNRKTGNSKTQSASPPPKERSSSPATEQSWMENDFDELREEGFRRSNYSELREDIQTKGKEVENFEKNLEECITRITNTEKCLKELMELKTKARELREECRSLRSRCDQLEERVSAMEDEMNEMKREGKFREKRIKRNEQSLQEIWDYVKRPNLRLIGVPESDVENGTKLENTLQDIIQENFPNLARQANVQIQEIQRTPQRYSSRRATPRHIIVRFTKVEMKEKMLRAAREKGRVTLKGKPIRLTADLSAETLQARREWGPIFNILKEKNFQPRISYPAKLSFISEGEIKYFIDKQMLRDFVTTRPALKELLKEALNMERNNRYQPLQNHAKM

For the substance “human SAMHD1 T592A, myc-tagged (from UniProt Q9Y3Z3 1-626) (natural protein)”, the normalized densitometric intensity of the co-precipitated band was determined as 100%.

The substance “human SAMHD1 T592D, myc-tagged (from UniProt Q9Y3Z3 1-626) (natural protein)” had a normalized densitometric intensity of the co-precipitated band of 24%.

The values are drawn from publication PMC5872582.
